Data on one molecule can be found in article PMC4259407, “HAX1 regulates E3 ubiquitin ligase activity of cIAPs by promoting their dimerization” (Oncotarget, 2014).

The target of this test is T1, full-length His-tagged cIAP2 (UniProt Q13489 1-604).
T1 construct: also called His-cIAP2; source: E. coli BL21 (DE3), purified (Ni-NTA)
Nature of the test: pull-down; in vitro dimerization assay: purified His-cIAP2 and GST-BUCR with HAX1 or HAX1N (0, 0.5 and 5 μg), preincubated at 4°C for 30 min; Ni-NTA agarose, 4 h at 4°C; 20 mM HEPES, 100 mM NaCl, 5% glycerol, 0.1 mg BSA, 0.1% Triton X-100; blots with anti-His and anti-GST; more complex with HAX1, no effect of HAX1N. The note with it: both partners purified.

B1: GST-tagged cIAP2 fragment (GST-BUCR) (domain or fragment, UniProt Q13489 251-604, looked up)
chain: SMQTHAARFKTFFNWPSSVLVNPEQLASAGFYYVGNSDDVKCFCCDGGLRCWESGDDPWVQHAKWFPRCEYLIRIKGQEFIRQVQASYPHLLEQLLSTSDSPGDENAESSIIHFEPGEDHSEDAIMMNTPVINAAVEMGFSRSLVKQTVQRKILATGENYRLVNDLVLDLLNAEDEIREEERERATEEKESNDLLLIRKNRMALFQHLTCVIPILDSLLTAGIINEQEHDVIKQKTQTSLQARELIDTILVKGNIAATVFRNSLQEAEAVLYEHLFVQQDIKYIPTEDVSDLPVEEQLRRLQEERTCKVCMDKEVSIVFIPCGHLVVCKDCAPSLRKCPICRSTIKGTVRTFLS
notes: cIAP2 residues 251-604 (printed as BUCT in the methods, BUCR in the results), cloned into the GST-tagged vector pGEX-6p-1; also called BUCT (a.a 251–604); source: E. coli BL21 (DE3), purified (glutathione-Sepharose 4B)
With B1, the binding result is “binds”.
